The series addresses T1, recombinant full-length hCAP18/LL-37 (residues 31-170).
T1 chain: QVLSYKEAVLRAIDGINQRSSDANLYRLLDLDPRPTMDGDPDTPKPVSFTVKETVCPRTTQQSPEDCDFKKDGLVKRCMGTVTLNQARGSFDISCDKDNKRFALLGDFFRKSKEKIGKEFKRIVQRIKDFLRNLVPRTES

B1: human neutrophil elastase (Calbiochem) (protein)
chain: IVGGRRARPHAWPFMVSLQLRGGHFCGATLIAPNFVMSAAHCVANVNVRAVRVVLGAHNLSRREPTRQVFAVQRIFENGYDPVNLLNDIVILQLNGSATINANVQVAQLPAQGRRLGNGVQCLAMGWGLLGRNRGIASVLQELNVTVVTSLCRRSNVCTLVRGRQAGVCFGDSGSPLVCNGLIHGIASFVRGGCASGLYPDAFAPVAQFVNWIDSIIQ
Regarding B1, the “proteolytic processing of hCAP18/LL-37 (SDS-PAGE and immunoblot)” value is “Elastase treatment generated a band migrating at the same size as synthetic LL-37, and a band at 14 kDa”.

The values above are taken from patent US7173007.
